Results as given in the supplement of paper PMC10567573.
± gives the standard deviation.

Test: protein stability index of a GFP-peptide fusion (GPS, HEK-293T) (PSI 1-6); higher = more stable
[1] = treatment: DMSO, c terminus: a fixed tail appended
[2] = treatment: MLN4924 1 uM, 8 h, c terminus: a fixed tail appended
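Note: 24-mer peptide tiles fused after GFP, lentivirally expressed, FACS-sorted into six equal bins by GFP/DsRed ratio, decoded by Illumina sequencing, PSI is the read-weighted mean bin number.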

Sequence	protein stability index [1]	protein stability index [2]	protein stability index (treatment: MLN4924 1 uM, 8 h, c terminus: native)
IVLGPYHVKFRSLSMVSECLFSLI [MCOLN1]	2.94 ± 0.68	2.78 ± 0.42	
EVKRAFFSKSKELHPDRDPGNPSL [DNAJC4]	3.89 ± 0.12	4.03 ± 0.37	
SESSPSDFSVSLKASGKNKHFKVQ [NCK2]	4.39 ± 0.18	4.33 ± 0.17	
NGQLMAVGGFDGTTYLKTIEVFDP [KLHL20]	2.93 ± 0.072	2.91 ± 0.45	
RADSFKVSYQLADGGEPQSVQVDG [TNXB]	4.89 ± 0.15	5.01 ± 0.22	
MECPEGQLPISSENDSTPTVSTSE [TAF7L]	5.46 ± 0.12	5.59 ± 0.25	
AKFWPRRRFNFFVLENNLEAVARH [DNAAF3]	2.13 ± 0.33	2.09 ± 0.19	
PDQAYDFLLKFLLVGDRDVGKSEI [RAB40A]	2.46 ± 0.39	2.35 ± 0.3	
FSAPDPPRPRPVSLSLRLPHQPVT [SMTNL2]	3.77 ± 0.12	3.91 ± 0.27	
AIVFTDGRAQDDVSEWASKAKANG [MATN2]	3.92 ± 0.29	4.26 ± 0.34	
LPDSPLRFDGLPAVLGFPGFSSGR [TRIM15]	2.87 ± 0.39	3.18 ± 0.41	
LKKMGKRLDYLNLKGARLTVEQGC [FBXO39]	2.62 ± 0.34	2.67 ± 0.28	
YRALLSGSNPPYLPFRDASFGNCT [CDC14A]	2.44 ± 0.091	2.49 ± 0.17	
FPAEERARVLDRRGCSRVEGGGTS [ANKRD9]	4.42 ± 0.2	4.53 ± 0.28	
HCVTSDPATSPLVLAIPRRLRVEL [TRIM35]	2.3 ± 0.37	2.13 ± 0.44	
VYTGKLLLNLVDHTEVVRDLTFAP [WSB1]	2.2 ± 0.28	2.36 ± 0.35	
RRKPDPPKDENERSTCNVVQDEFL [DLC1]	5.27 ± 0.1	5.33 ± 0.13	
KSGEGFIDFIGQVHKTKEQFGQDG [PTPRD]	4.24 ± 0.49	4.23 ± 0.17	
SGSQRHMVGQKDSVILSVKFSPFG [TLE6]	2.2 ± 0.27	2.49 ± 0.22	
RPGATAVPTPLTNVQILLPVGEPV [FCHO1]	3.4 ± 0.26	3.33 ± 0.2	
ACGLSDVAHVESLQEKSQCALEEY [NR2F2]	4.58 ± 0.28	4.67 ± 0.3	
IQYLTENIWASQSVLSACDNLSDL [IQUB]	2.49 ± 0.34	2.49 ± 0.3	
SNGSMHNYCPQQTKITSAFKYINT [EDNRA]	2.36 ± 0.35	2.6 ± 0.26	

Sequence	protein stability index [1]	protein stability index [2]	protein stability index (treatment: MLN4924 1 uM, 8 h, c terminus: native)
CFKAAFLDFKDLLESEDWEEDNWD [TEX19]	2.95 ± 0.2	3.24 ± 0.36	
QDDSKPTQRQFTILNFNDLMSSAV [AASDHPPT]	2.86 ± 0.31	2.97 ± 0.28	
EQIGHILVSWLPRLNAYRGYCSNQ [NET1]	2.67 ± 0.51	2.65 ± 0.18	
QLVEMTGLSPRVIRVWFQNKRCKD [ISL2]	2.47 ± 0.4	2.95 ± 0.43	
VDWRRVSRLQEDPEGTENPLGVDE [SLA]	4.46 ± 0.36		
LHDARLLRTIPSPYPASKADIPSV [DCAF4]	3.36 ± 0.21	3.43 ± 0.11	
LHAWQINWPARQRGTHAVVGVATA [SPSB4]	2.39 ± 0.25	2.31 ± 0.21	
ELSPPLSPASHVDVDLTIHGRHID [FOXJ1]	4.82 ± 0.18	4.84 ± 0.064	
EKIHEMVKKNSAKSMGLKKKAFVW [ACSBG2]	2.49 ± 0.2	2.45 ± 0.3	
VSTVSHADADCFVCVFLSHGEGNH [CASP6]	2.37 ± 0.2	2.18 ± 0.17	
KGAILTTMLATRNFSAAKSLLKKP [CAMK2D]	2.82 ± 0.53	2.8 ± 0.32	
GKQPVSLPARRLKLRGRKRRQRG [CPXM2]			3.59 ± 0.25
QFHALQSKLEERFGPDSKSSALAC [NCF4]	3.5 ± 0.28	3.6 ± 0.54	
ALWCAAGAGHFEVVKLLVSHGANV [FEM1B]	2.51 ± 1.3	2.37 ± 0.26	
VGVDGVRAFLQTYSHEVSLTADSR [PCDHGA10]	2.49 ± 0.37	2.61 ± 0.39	
TSTVNSAREELMESRMRIESLSSQ [LMNB1]	4.54 ± 0.15	4.51 ± 0.18	
EEEEGEEEELIRIFQEQQKKWQQY [FAM9B]	4.02 ± 0.23	4.13 ± 0.28	
EQCIKLWLHALHLRQKGNRNTHKD [FEM1B]	2.39 ± 0.21	2.59 ± 0.39	
KKTQETLSQAGQKTSAALSTVGSA [TPD52L2]	4.87 ± 0.24	4.99 ± 0.25	
RREVAKTVFCLVVIFALCWFPLHL [EDNRA]	2.93 ± 0.19	2.53 ± 0.27	
SHCDSPSPQEDGQIMFDVEMHTSR [BNIP3L]	4.79 ± 0.31	4.8 ± 0.38	
KQLKPWCWYCNRDFDDEKILIQHQ [ZNF207]	2.21 ± 0.45	2.46 ± 0.59	
QVQQVEVEATVKPELTAALRDIRA [PRPH]	4.02 ± 0.31	4.32 ± 0.18	

Sequence	protein stability index [1]	protein stability index [2]	protein stability index (treatment: MLN4924 1 uM, 8 h, c terminus: native)
VWDASRAPRGTPDPGLGEGPALWL [PLEKHN1]	2.74 ± 0.25	2.79 ± 0.38	
IIDCGDIVWSLAFGSSVPEKQSRC [WSB1]	2.12 ± 0.24	2.35 ± 0.28	
PGKINCLRNCKTYQARKPLWFYNT [RHOBTB3]	2.59 ± 0.41	2.76 ± 0.47	
PRRVCVGGKRRRDDISVDSLDFTK [PPP2R2C]	3.79 ± 0.16	3.9 ± 0.38	
YAKKESDLNGAQIKLREYEAALNS [LMNB1]	4.07 ± 0.2	4.07 ± 0.3	
HEVKDNYIPVIKRALNSVPVIIAA [RHOBTB3]	2.34 ± 0.34	2.18 ± 0.17	
DLTSSSSDELSWIIELLEKDGMAF [ELF3]	2.86 ± 0.34	3.19 ± 0.29	
VFGVPLTVNVQRTGQPLPQSIQQA [DLC1]	2.79 ± 0.2	3 ± 0.43	
AEGAVPETQTLTGWSKGFIGMHRE [RHOBTB1]	4.09 ± 0.12	4 ± 0.23	
PNEAMVVSGFCRSPPVMVAGGRVF [FLOT1]	2.2 ± 0.2	2.42 ± 0.26	
EAKEAKGSGYEKLGPSRDPDPLNI [RTP4]	4.9 ± 0.21	4.91 ± 0.18	
KAQRDYELKKAAYDIEVNTRRAQA [FLOT1]	4.17 ± 0.11	4.44 ± 0.085	
STARRSRAASSQRAEEEDDDIKQL [CHMP4C]	5.59 ± 0.073	5.46 ± 0.25	
MTEWFMCAFSRTLPWSSVLRVWDM [TBC1D10A]	3.32 ± 0.42	2.84 ± 0.23	
SARCVVSFNILVEDRVKLFGIEIE [PCDHGA10]	2.12 ± 0.68	1.95 ± 0.27	
QPKQLIVDDLKGSLKEDLTQHKFI [SPRY1]	4.14 ± 0.13	4.2 ± 0.22	
KKENKMTWAPKNKGGEERKAEGGE [IRX6]	5.39 ± 0.2	5.51 ± 0.27	
LSTADGKAFADPEVLRRLTSSVSC [ANKRD17]	3.55 ± 0.17	3.69 ± 0.29	
EKALASILLQDHIRDLDVVVVSVA [ATL3]	2.52 ± 0.65	2.21 ± 0.53	
PASAPGEPRQRRLLLLDLLALYTP [ANKRD9]	2.25 ± 0.071	2.02 ± 0.48	
AREGRETLKCLSHHVADAYTSSQK [TOR1AIP2]	4.48 ± 0.35	4.44 ± 0.37	
RRTLQGLEIELQSQLSMKAGLENT [KRT13]	3.4 ± 0.24	3.34 ± 0.37	
HIDIVKELIKWRAAIVVNGHGMTP [FEM1B]	2.15 ± 0.53	2.17 ± 0.26	

Sequence	protein stability index [1]	protein stability index [2]	protein stability index (treatment: MLN4924 1 uM, 8 h, c terminus: native)
GSCSTVGGVGYGDSKDCILEPLSL [ZNF277]	3.59 ± 0.32	3.5 ± 0.24	
YEAGVLAFYDVTGGMSHLHTFRAT [TRIM14]	2.47 ± 0.45	2.07 ± 0.45	
ITSSVFPSASLGKASSRKPFGILS [FBXO34]	2.65 ± 0.12	2.67 ± 0.21	
EEFCEFVKSNTEQMREAFATAFSK [ZBED1]	3.76 ± 0.27	3.98 ± 0.32	
CMYRHALPPGFVLKKDKKKEEKED [ZC3H15]	4.58 ± 0.21	4.67 ± 0.15	
LLCLFFGIPWEAGARQISYSIPEE [PCDHGA10]	1.94 ± 0.035	2.45 ± 0.41	
SLVYYGLTLSAGDLGGSIYANLAL [SLC22A15]	3.02 ± 0.6	2.91 ± 0.45	
VLRTYLELVLCVLVSIRNNRNLQK [FBXO33]	2.96 ± 0.71	2.64 ± 0.51	
MSSIICEGDTVSQELLDTVLVNLV [PDS5B]	2.24 ± 0.22	2.14 ± 0.53	
DSARADDARQLFVLAGAAEEGFMT [GNAI1]	4.21 ± 0.22	4.43 ± 0.077	
GSGDSGDSSEEESHRVVLRPRGKE [LYSMD4]	5.55 ± 0.19	5.35 ± 0.12	
FYSAYLVAEKVVVITKHNDDEQYA [HSP90AB1]	2.18 ± 0.23	2.11 ± 0.43	
SSNGNDNGNGKNGGLEHVPSSSSI [BNIP3L]	5.2 ± 0.29	5.33 ± 0.17	
TPQPTALTFAKSSWARQESLQERK [AUP1]	4.43 ± 0.14	4.48 ± 0.19	
EPYPSQLLKPIPEYSPEEESEPPA [TRAF3IP2]	5.45 ± 0.12	5.66 ± 0.18	
RRVLPCIPSEEWPNPPTLQEAGLS [FAF2]	3.9 ± 0.38	3.79 ± 0.18	
EELMLVHSLEYIDLMETTQYMNEG [HDAC6]	3.5 ± 0.2	3.41 ± 0.3	
RRHTSMERYDPNIDQWSMLGDMQT [KLHL12]	3.86 ± 0.27	3.82 ± 0.26	
LAGLSVGRSSLTACSLPLCACLLG [PXN]	2.33 ± 0.39	2.33 ± 0.22	
ATQMMVDIDGDVLVFLELAQFHCA [RHOBTB2]	3.08 ± 0.33	2.89 ± 0.75	
